# B1: LINE1-full (parent)
# chain: UACGUAGGUGGUUUUCCCCUGAUAGUGCUAAGGGGGCCUGGAAGUUUGGACUGGGCAGAGCUCAACACAGCGUGGCAAAGUGGCUGUGGCUAGACUGCCUCUCUGGAUUCCUCGUCACUCAGCAGGGCAUCUCUGAGAGAAAUGCC
# Variants of: B1
# Test: self-cleavage, relative activity (ratio to wild type); higher = more cleavage; in vitro, sequencing; the parent is a self-cleaving ribozyme
row,Variant,self-cleavage
1,U62G A138C,0.09
2,U62C C128A,0.05
3,A65U U104C,0.52
4,A65G C84U,0.06
5,A65G C84G,0.17
6,A64U A140G,0.39
7,C63U A140G,0.25
8,A64C U104A,0.28
9,C63U U85C,0.08
10,C63U U85G,0.1
11,A64U U109G,0.23
12,A64U U109C,0.25
13,A65U G80A,0.28
14,A64G U87A,0.07
15,A64G U87G,0
16,U62C U85A,0.03
17,U62C U85C,0.05
18,A65G G144U,0.06
19,A65G A69C,0
20,A65G A69U,0.07
21,A65G A69G,0
22,A64U G74A,0.3
23,C63U U115C,0.32
24,A64U G126A,0.37

row,Variant,self-cleavage
1,C66U A124G,0.03
2,A65G G126A,0.02
3,A65G G97A,0.03
4,A64U G125U,0.41
5,A64U G125A,0.34
6,A65G U96C,0.08
7,A64U U134A,0.16
8,A64U U134C,0.51
9,A64G A129G,0.29
10,A64G A129U,0.25
11,A64G A124U,0.29
12,A65C U119A,0
13,A64G A142G,0.25
14,A64U U108C,0.65
15,U62C C113U,0
16,C66A A136G,0.04
17,A65G A136U,0.07
18,A64C U119C,0.35
19,U62G C113U,0.1
20,A64G A77U,0.23
21,A64G A77G,0.42
22,A64G G82A,0.19
23,A65U A78C,0.27
24,A65U G114A,0.19

row,Variant,self-cleavage
1,U62C C133A,0.06
2,A64U A138G,0.52
3,A64U A138C,0.64
4,C66A A141G,0.04
5,A64G G72A,0.19
6,A64G G72U,0.12
7,U62G U115C,0
8,C63U A94G,0.06
9,C63A A64G,0.02
10,A64C A142G,0.25
11,A64C A142U,0.37
12,A64G G74A,0.12
13,A65U U108C,0.4
14,A64U U115A,0.57
15,A64C A129U,0.14
16,A64C A129G,0.51
17,U62C U81C,0.05
18,U62C U81A,0.04
19,A64G U130C,0.33
20,A64G U130A,0.28
21,A65G A79G,0.09
22,A64G G105U,0.15
23,A65G A107G,0.03
24,C63G,0.09

row,Variant,self-cleavage
1,C63A,0.06
2,C63U,0.36
3,A64U A129G,0.66
4,A64U A129U,0.46
5,A65G A129C,0.02
6,A64C U81C,0.38
7,A65G U119G,0
8,A65G U119C,0.04
9,A64C U130C,0
10,A65G G127U,0.04
11,A65G G127C,0.06
12,A65U G125A,0.21
13,A65G G74A,0.01
14,A65G U100C,0.06
15,A65G U100A,0.09
16,A64U A94U,0.26
17,C63U A124G,0.09
18,A65U A92G,0.03
19,A64G C131U,0.33
20,A65U G82U,0.15
21,A65C U143C,0.06
22,A64U U102C,0.34
23,U62C U102C,0.06
24,U62C C120U,0.06

row,Variant,self-cleavage
1,A64G C84U,0.1
2,A64G C84A,0.05
3,A65U C76U,0.22
4,A64C A69G,0.35
5,A64G U132A,0.34
6,A64G U132C,0.39
7,A65G A141C,0.38
8,C63U C90U,0
9,A64G G89U,0
10,C66G A117G,0.08
11,A64G U73G,0.15
12,A65G A77G,0.04
13,U62C G93A,0.06
14,A65G C110U,0.07
15,U62C G125A,0.06
16,A64G A138G,0.21
17,A65C A79G,0
18,A65U A141G,0.18
19,A64U C116A,0.37
20,A64U G82A,0.65
21,A65G U115C,0.05
22,A65G U115A,0.04
23,A64C U143A,0.25
24,U62C U130A,0.07

row,Variant,self-cleavage
1,A64U G122C,0.44
2,A64U G122A,0.54
3,A64G A117U,0.26
4,A64C U85C,0.02
5,A65G U134A,0.04
6,C63A A142U,0.05
7,C63A A142G,0.06
8,A64U G72C,0.25
9,A64G U96A,0.07
10,A64G U104A,0.32
11,A64U U132A,0.07
12,C63U U130C,0.39
13,A65G U85A,0.07
14,A65G U85C,0.13
15,A64U C71U,0.37
16,U62G A141G,0.08
17,A64C A94G,0.14
18,A65U U91G,0.06
19,A65U U91C,0.08
20,A64G U112G,0
21,A64G U112C,0.28
22,C63U U102C,0.28
23,C63U U102A,0.33
24,A65U U100C,0.16

row,Variant,self-cleavage
1,U62G,0.05
2,A65U A79G,0.21
3,A65C A124G,0.1
4,U62C U96G,0
5,U62C U96A,0.03
6,A65G C133U,0.04
7,A65U U112A,0.14
8,A65G U87C,0.16
9,A65G U87A,0.06
10,U62G A129G,0.15
11,U62C U73C,0.07
12,U62C C131A,0.03
13,A65U A69C,0.02
14,A65U A69G,0.09
15,A64U A141C,0.46
16,A65G A140U,0.07
17,A65G A140C,0.13
18,A65G A140G,0.04
19,A65U G97A,0.04
20,A65U G88U,0.02
21,A65G C90U,0.03
22,U62G U104C,0.08
23,U62C C111U,0.02
